Consider 3 molecules from US20090131331A1 (DSM IP ASSETS B V, published 2009).

The target in assay [1] is angiotensin I converting enzyme (ACE). The experiment in a line: cell-based or functional assay.
For assay [2] the target is unchanged. The assay is described as follows: cell-based or functional assay. The source holds these as a separate data set.

B1: tripeptide IPP (peptide)
peptide: IPP
For the molecule B1, in assay [1], the “ACE inhibition (IC50 value), at-line ACE assay (cleavage of HHL)” value (“ACE inhibition … (cleavage of HHL)” for short) amounted to 7.1 µM and the “ACE inhibition (IC50 value), modified Matsui assay (cleavage of Hip-His-Leu)” value (shortened to “ACE inhibition … (cleavage of Hip-His-Leu)”) came to 2 µM.

B2: tripeptide Methionine-Alanine-Proline (Met-Ala-Pro) (peptide)
peptide: MAP
With B2, the “IC50 value in the Modified Matsui test (ACE inhibition)” value in assay [2] came to 0.5 µM. Also, in assay [1], the “ACE inhibition … (cleavage of HHL)” value is 3.8 µM and the “ACE inhibition … (cleavage of Hip-His-Leu)” value is 0.4 µM.

B3: tripeptide Isoleucine-Threonine-Proline (Ile-Thr-Pro) (peptide)
peptide: ITP
On to B3, for which, in assay [1], the “ACE inhibition … (cleavage of HHL)” value was 50 µM and the “ACE inhibition … (cleavage of Hip-His-Leu)” value turned out to be 10 µM.
